Laboratory results: IntAct's records for PubMed 36376753

B1: SNF1-related protein kinase catalytic subunit alpha KIN10 (Arabidopsis thaliana (Mouse-ear cress)), Q38997 (parent)
chain: MDGSGTGSRSGVESILPNYKLGRTLGIGSFGRVKIAEHALTGHKVAIKILNRRKIKNMEMEEKVRREIKILRLFMHPHIIRLYEVIETPTDIYLVMEYVNSGELFDYIVEKGRLQEDEARNFFQQIISGVEYCHRNMVVHRDLKPENLLLDSKCNVKIADFGLSNIMRDGHFLKTSCGSPNYAAPEVISGKLYAGPEVDVWSCGVILYALLCGTLPFDDENIPNLFKKIKGGIYTLPSHLSPGARDLIPRMLVVDPMKRVTIPEIRQHPWFQAHLPRYLAVPPPDTVQQAKKIDEEILQEVINMGFDRNHLIESLRNRTQNDGTVTYYLILDNRFRASSGYLGAEFQETMEGTPRMHPAESVASPVSHRLPGLMEYQGVGLRSQYPVERKWALGLQSRAHPREIMTEVLKALQDLNVCWKKIGHYNMKCRWVPNSSADGMLSNSMHDNNYFGDESSIIENEAAVKSPNVVKFEIQLYKTRDDKYLLDLQRVQGPQFLFLDLCAAFLAQLRVL
partner: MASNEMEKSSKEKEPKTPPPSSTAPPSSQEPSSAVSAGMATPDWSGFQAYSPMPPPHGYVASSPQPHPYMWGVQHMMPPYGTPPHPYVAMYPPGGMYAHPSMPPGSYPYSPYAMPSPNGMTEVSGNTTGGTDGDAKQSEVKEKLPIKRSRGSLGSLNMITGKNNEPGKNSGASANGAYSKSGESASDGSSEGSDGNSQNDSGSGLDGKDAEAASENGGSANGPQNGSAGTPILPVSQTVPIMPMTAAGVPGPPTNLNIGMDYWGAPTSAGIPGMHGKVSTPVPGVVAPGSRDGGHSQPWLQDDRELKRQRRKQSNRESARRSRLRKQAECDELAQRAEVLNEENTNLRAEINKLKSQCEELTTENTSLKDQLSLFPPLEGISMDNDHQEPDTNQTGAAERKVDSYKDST
B2: SNF1-related protein kinase catalytic subunit alpha KIN10 (Arabidopsis thaliana (Mouse-ear cress)), Q38997 (parent)
chain: B1 chain
partner: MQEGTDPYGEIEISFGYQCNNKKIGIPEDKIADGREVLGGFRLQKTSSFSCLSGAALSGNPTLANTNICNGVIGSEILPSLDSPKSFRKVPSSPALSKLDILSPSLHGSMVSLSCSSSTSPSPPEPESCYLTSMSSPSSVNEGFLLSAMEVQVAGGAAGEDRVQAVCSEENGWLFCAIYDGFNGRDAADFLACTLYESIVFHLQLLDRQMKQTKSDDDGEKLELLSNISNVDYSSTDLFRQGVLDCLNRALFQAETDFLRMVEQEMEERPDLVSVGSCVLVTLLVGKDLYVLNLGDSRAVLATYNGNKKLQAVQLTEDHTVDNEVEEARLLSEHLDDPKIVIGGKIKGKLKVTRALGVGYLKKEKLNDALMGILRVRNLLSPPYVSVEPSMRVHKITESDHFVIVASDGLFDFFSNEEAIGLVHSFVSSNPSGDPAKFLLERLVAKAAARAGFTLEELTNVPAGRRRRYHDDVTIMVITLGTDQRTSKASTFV
B3: SNF1-related protein kinase catalytic subunit alpha KIN10 (Arabidopsis thaliana (Mouse-ear cress)), Q38997 (parent)
chain: B1 chain
partner: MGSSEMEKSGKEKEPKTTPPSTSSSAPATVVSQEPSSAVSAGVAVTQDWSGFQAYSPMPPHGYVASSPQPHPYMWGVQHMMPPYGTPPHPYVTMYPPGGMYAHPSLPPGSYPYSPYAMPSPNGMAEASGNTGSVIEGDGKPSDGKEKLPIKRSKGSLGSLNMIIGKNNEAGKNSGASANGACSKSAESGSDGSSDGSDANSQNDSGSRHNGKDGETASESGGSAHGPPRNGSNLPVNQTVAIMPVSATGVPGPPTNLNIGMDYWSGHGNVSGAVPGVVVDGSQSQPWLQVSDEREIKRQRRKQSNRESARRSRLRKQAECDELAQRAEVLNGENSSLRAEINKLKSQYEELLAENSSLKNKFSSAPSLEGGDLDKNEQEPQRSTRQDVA
B4: SNF1-related protein kinase catalytic subunit alpha KIN10 (Arabidopsis thaliana (Mouse-ear cress)), Q38997 (parent)
chain: B1 chain
partner: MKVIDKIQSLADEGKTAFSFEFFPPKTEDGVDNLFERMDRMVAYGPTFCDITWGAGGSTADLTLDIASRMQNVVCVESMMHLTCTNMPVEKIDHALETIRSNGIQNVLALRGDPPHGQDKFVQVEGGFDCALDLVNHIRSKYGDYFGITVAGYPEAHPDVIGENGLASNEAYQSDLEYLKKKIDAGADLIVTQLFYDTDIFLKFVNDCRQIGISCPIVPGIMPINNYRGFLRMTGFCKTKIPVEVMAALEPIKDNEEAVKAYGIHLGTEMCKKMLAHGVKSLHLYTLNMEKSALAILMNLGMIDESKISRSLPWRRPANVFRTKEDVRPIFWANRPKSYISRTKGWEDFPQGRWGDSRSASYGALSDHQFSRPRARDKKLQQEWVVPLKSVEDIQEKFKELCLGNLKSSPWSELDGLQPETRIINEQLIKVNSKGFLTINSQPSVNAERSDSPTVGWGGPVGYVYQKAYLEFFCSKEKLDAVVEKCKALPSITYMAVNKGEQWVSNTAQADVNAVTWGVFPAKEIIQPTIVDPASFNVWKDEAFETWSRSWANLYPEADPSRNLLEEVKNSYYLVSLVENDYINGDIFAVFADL

Variants of: B1
Settings: with bzp16_arath BZIP16, Q501B2

Variant | effect of a mutation on the interaction
K48M | disrupting interaction strength

Variants of: B2
Settings: with p2c40, Q9LUS8

Variant | effect of a mutation on the interaction
K48M | disrupting interaction strength

Variants of: B3
Settings: with bzp68_arath BZIP68, Q84LG2

Variant | effect of a mutation on the interaction
K48M | disrupting interaction strength

Variants of: B4
Settings: with mthr2_arath MTHFR2, O80585

Variant | effect of a mutation on the interaction
K48M | disrupting interaction strength
